Assay results as given in US20250340659A1 (PETMEDIX, published 2025).

T1: recombinant canine OX40L ECD-TNCc-HIS protein (canine)
T1 construct: also called Trimeric OX40L probe (HIS tag); trimeric canine OX40L
T1 chain: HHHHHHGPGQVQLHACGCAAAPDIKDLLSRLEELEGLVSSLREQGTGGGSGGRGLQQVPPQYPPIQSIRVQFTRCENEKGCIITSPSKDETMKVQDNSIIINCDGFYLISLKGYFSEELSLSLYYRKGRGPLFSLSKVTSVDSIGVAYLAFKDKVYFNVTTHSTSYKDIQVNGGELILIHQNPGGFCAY

T2: canine OX40L, full length membrane form, expressed on HEK293 cells (canine)
T2 construct: also called OX40L expressing HEK; HEK OX40L cells
T2 chain: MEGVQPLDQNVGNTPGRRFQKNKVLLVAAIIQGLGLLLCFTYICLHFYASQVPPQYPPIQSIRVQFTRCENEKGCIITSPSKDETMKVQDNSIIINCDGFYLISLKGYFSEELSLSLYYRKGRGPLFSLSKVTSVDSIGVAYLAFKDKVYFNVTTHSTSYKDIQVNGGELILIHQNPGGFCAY

B1: PMX063 (antibody, V domains shown)
VH: EVQLVESGGDLVRPGGSLRLSCVASGFTFNNYHMSWVRQAPGKGLQWVAFINSGGSGTTFADVVRGRFTISRDYAKNALYLQMNSLRAEDTAVYYCASGSIWTHFDYWGQGTLVTVSS
VL: SFVLTQLPSVSVTLRQTARITCGGDIIGSKNVYWYQQRLGQAPVLIIYRDNNRPTGIPERFSGASSGNTATLTISGALAEDEADYYCQVWDNSNKAMFGGGTHLTVL
notes: also called PMX63
B2: PMX029 (antibody, V domains shown)
VH: EVQLVESGGDLVKPGGSLRLSCVASGFTFSSYHMNWVRQAPGKGLQWVAYINTGGSRTSYADAVKGRFTISRDNAKNTLYLQMNSLRAEDTAVYYCANNYWDNFDSWGQGTLVTVSS
VL: SYELTQPPSVNVTLRETAHITCGGDSIGSKYVQWIQQNPGQAPVVIIYKDTNRPTGIPERFSGANSGNTATLTISGALAEDEADYYCQVGDSGTKASVFGGGTHLTVL
notes: also called PMX29
B3: PMX065 (antibody, V domains shown)
VH: EVQLVESGGDLVKPGGSLRLSCVASGFTFNNYEMYWVRQAPGKGLEWVARIYESGSTTFSAEAVTGRFTISRDNAKNMVYLQMNSLRAEDTAVYYCASASSSSWRFDYWGQGTLVTVSS
VL: SYVLTQLPSVSVTLGQTARITCGGDSIGRKNVCWFQQRLGQAPELIIYDDRSRPSGIPERFSGANSGNTATLTISGALAEDEADYYCQVWDSSTGVFGGGTHLTVL
notes: also called PMX65
B4: PMX154 (antibody, V domains shown)
VH: EVQLVESGGDLVKPEGSLRLSCVVSGFTFSGFDMSWVRQAPGKGLQWVAYISTDGRSTGYTDAVKGRFTISRDNVKNTLYLQMNSLRTEDTAVYYCAKETRHWGFDYWGQGTLVIVSS
VL: SYVLTQLSSVSVSLRQTAHITCGGDSIGRKNVYWHQQKLGRAPILIIYDDSSRPSGIPERFSGANSGNTATLTISGALAEDEAAYYCQVWDSSTSVFGGGTHLTVL
B5: PMX155 (antibody, V domains shown)
VH: ELHLVESGGDLVKPAGSLRLSCVASGFTFSSFRMSWVRQSPGKGLQFVAGINSDGYNTQYRDDVKGRFTISRDNTEKTLYLQMNNLRVEDTAMYYCVKDQGSWGGNFDFWGQGTLVTVSS
VL: SYGLTQPPSVNVTLRETAHITCGGDSIGSKYVQWIQQIPGQAPVVIIYKDRNRPTGIPERFSGANSGNTATLTISGALAEDEADYYCQVGDSGTSVFGGGTHLTVL

Assays:
[1] = biological target: T1, recombinant canine OX40L ECD-TNCc-HIS …; experiment: SPR Koff (kd1)
In short: (§1)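 Purified antigen amine-coupled at low density to a CM5 chip; candidate antibodies injected as analyte over a concentration range. Kinetic curves fitted with a bivalent analyte model to give functional affinity and dissociation rates.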

[2] = biological target: T1, recombinant canine OX40L ECD-TNCc-HIS …; experiment: SPR KD1, bivalent analyte model
In short: as §1

[3] = biological target: T2, canine OX40L, full length membrane …; experiment: flow cytometry, OX40L HEK minus WT HEK
In short: (§2)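 CHO supernatants at 1, 5 or 10 μg/ml in PBS/3% FBS incubated 30′ on ice with cells surface-expressing canine OX40L. Bound antibody detected with fluorescent anti-canine Fc secondary (1:1000, 30 min, dark) and measured by flow cytometry, with parental WT HEK signal subtracted where stated.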

[4] = biological target: T1, recombinant canine OX40L ECD-TNCc-HIS …; experiment: SPR Koff (kd2)
In short: as §1

[5] = biological target: T2, canine OX40L, full length membrane …; experiment: cell-based or functional assay
[6] = biological target: T2, canine OX40L, full length membrane …; experiment: flow cytometry
In short: as §2

koff [1] [s⁻¹] | Kd [2] [nM] | GEO mean difference [3] | koff [4] [s⁻¹] | % Signal Inhibition Average [5] [%] | % Signal Inhibition Rep1 [5] [%] | % Signal Inhibition Rep2 [5] [%] | % Signal Inhibition Rep3 [5] [%] | GEO mean OX40L expressing HEK [6] | Binder
9.05e-05 | 0.271 | 3.15e+06 | 5.21 | 74.4 | 68.3 | 83 | 72 | 3.18e+06 | B1
0.0294 | 51.6 | 1.06e+06 | 0.000779 | 69.4 | 75.8 | 76.2 | 56 | 1.09e+06 | B2
0.0125 | 107 | 3.52e+06 | 0.412 | 72.6 | 62.7 | 85.3 | 69.9 | 3.55e+06 | B3
0.00384 | 15.6 | 781000 | 6.94 | 63.7 | 62.6 | 77.2 | 51.5 | 789000 | B4
0.032 | 90.6 | 730000 | 0.000294 | 32.7 | 19.9 | 37.4 | 40.9 | 738000 | B5
